Assay: yeast display, Sf9 membrane polyspecificity reagent, FACS + sequencing; frameworks hold sequencing errors
Procedure, shortened: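 Synthetic nanobody libraries on Saccharomyces cerevisiae BJ5465 were galactose-induced for 36–48 hours, stained 1 hour at 4 °C with 10% biotinylated, detergent-solubilized Sf9 membrane reagent and enriched on streptavidin microbeads. FACS then separated cells into low and high (top ~1%) gates by anti-HA (expression) and streptavidin (reagent binding) fluorescence. Genes were colony-PCR amplified, MiSeq 2 × 250 sequenced and CDR-length filtered. A clone's polyreactivity label is that of its gate of origin.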

Row | Sequence | polyreactivity (PSR sort gate)
1 | QVQLVESGGGLVQAGGSLRLSCAASGSTFKDNAMGWYRLAPGKERELVARITYRGGRTYADSVKGRFTISRDNAKNTVFLQMNSLKPEDTAVYYCAARPSLYGHNSRYDYWGQGTQVTVSS | low polyreactivity
2 | QVQLVESGGGLVQAGGSLRLSCAASGRTFVYYAMGWYRQAPGKEREFVAAISRSGGRTSYADSVKGRFTISRDNAKNTVYLQMNSLKPEDTAVYYCAAEKRTQPTSREYYWVQGTQVTVSS | high polyreactivity
3 | QVQLVESGGGLVQAGGSLRLSCGASGSIIGSYALGWYRQAPGPERELVAAISSSGGRTYYAVSVKGRFTISRDKAKNTVYLQMNRLKPAETAVYYCNTRPGTVFRAGGDDWGQGTQVTVSS | high polyreactivity
4 | QVQLVETGGGLVQAGGSLRLSCAPSGRTFGPYAMGWYRQAPGKERELVAAIRVRGASTYYADSVKVRFTISRDNEKNTVYLQMNSLKPEDTEVYYCAATLSYYVGVRYDYWGQGTQVTVSS | high polyreactivity
5 | QVQLVESGGGLVQAGGSLRLSCAASGFIIWYSAMGWYRQAPGKERELVAAIRSGGSTYYADSVKGRFTISRDNAMNTVYLQMNSLKPEDTAVYYCAAGKNVYYFSRSKYGYDYWGQGTQVTVSS | high polyreactivity
6 | QVQLVESGGGLVQAGGSLRLSCAASGRIFRINAMGWYRQAPGKERELVASISRRGGNTYYADSVKGRFTISRDNAKNTVYLQMNSLKPEDTAVYYCAADTNLERTFDYWGQGTQVTVSS | low polyreactivity
7 | QVQRVESGGGLVQAGGSLRLSCAASGLILVPNTMGWYRQAPGKVRELVAAISYSGGGTYYADAVKGRFTISRDNAKNTVYLQMNSLKPEETAVYDCAAYVKRESAPYGYWGQGTQVTVSS | low polyreactivity
8 | QVQLVESGGGLVQAGGSLRLSCAASGIIFAYYAMGWYRQAPGKERELVAAMNRSGGTTYYADSVKGRFTISRDNAKNTLYLQMNSLKPEDTAVYYCNALTTWRYRYDYWGQGTQVTVSS | high polyreactivity
9 | QVQLVESGGGLVQARGSLSLSCAATGSTSYINAMGWSSQAPWKERELVAAIRSGGSTKYADSVKGRFTISRDNAKNTVYLQMNSVLPEDSSVYYCAARNVYKTSGFRWVWNYDYWGQGTQVTVSS | high polyreactivity
10 | QVQLVESGGGLVQAGGSLRLSCAASGRIFRSNSMGWYRQAPGKERELVATITRSGGSTYYADSGKGRFSISRDNAKNTVYVQKNSLKPEDTAVYYCNAVFGSAYRAQRIMGYWGQGTQVTVSS | low polyreactivity
11 | QVQLVESGGGLVQAGGILRLSCAASGITFRCYAMVWYRQAPGKERELVAAITTGGSTKYADSVKGRFTISRDNAKKSVYLQMNSLKPEDTAVYYCAARGRYAGGYWGQGTQVTVSS | high polyreactivity
12 | QVQLVESGGGLVQAGGSLRLSCAASGIIFRRYAMGWYSQAPVKERELVAAITGSGGSPYYADSVKGRFTISRDNAKNTVYLQMNSLKPEDTAVYYCAAQSVLRFASSRYNSWGQGTQVTVSS | high polyreactivity
13 | QVQLVESGGGLVQAGGSLRLSCAASGSIFVWYVMGWYRQAPGKERELVAVISRSGGSTYYADSVKGRFTISRDNAKNTVYLQMNSLKPEDTAVYYCAADSRSYYRDVDYWGQGTQVTVSS | low polyreactivity
14 | QVQLVESGGGLVQAGGSLRLSCAASGGTFSYYTMGWYRQAPGKERELVARISKNGGRTYYADSVKGRFTISRDNAKNTVYLQMNCLKPEDTAVYYCNAAGRTYDFSGGRTMEYWGQGTQVTVSS | high polyreactivity
15 | QVQLVESGGGLVQAGGSLRLSCAASGSIFEYNDMGWYRQAPGKERELVAAITTGGRTSYADSVKGRFTISRDNAKNTVYLQMNSLKPEDTAVYYCAAEPPAEFWTDRLVDYYVGYDYWGQGTQVTVSS | low polyreactivity
16 | QVQLVESGGGLVQAGGSLSLSCAASGSTFGSNAKGWYRQAPGKARELVAAISSDGSTNYADSVKGRFTISRDNAKNTVYLQMNSLKPEDTAVYYCAADDRHRYNIYDYWGQGTQVTLSS | low polyreactivity

Row | Sequence | polyreactivity (PSR sort gate)
17 | QVQLVESGGGLVQAGGSLRLSCAASGRTFWTNAKGWYRQAPGKERDFFAAISWRGASTFYADSVKGRFTISRYNAKNTVYLQMNSLKPEDTAVYYCAAQSRTRSFYGKYDSWGQGTQVTVSS | low polyreactivity
18 | QVQLEESCGGLVQAGGSHRLSCAASGSTIYNNAMGWYRQAPRKERELVAAISSGGGITYYADSVKGRFTISRDNAKNSVYLQMNSLKPEDTAVYYCNARRIYLGYNYWGQGTQVTVSS | high polyreactivity
19 | QVQLVESGGGLVQAGGSLRLSCAASGLTFRYYTMGWYRQAPGKERELVAAITKSGSSTYYADSVKGRFTISRDNAKNTVYLQMNSLKPEDTAVYYCAKDSNHWGQGTQVTVSS | high polyreactivity
20 | QVQLVESGGGLVQAGGSLRLSCAASGSIFSYYAMGWYRQAPGKERELVADISFTGDSTYYADSVKGRFTISRDNAKNTVYLQMNSLKPEDTAVYYCAKDEIIAVYFEYDYWGQGTQVTVSS | low polyreactivity
21 | QVQVVESGGGLVQAGGSLRLSCAASGSIFRDNAMGCYRQAPGKERELVASIRSSGGRTYYADSVKGRFTISRDNAKNTVYLQMNSLKPEDTAVYYCARRWYPVTPYARMYYWGQGTQVTVSS | low polyreactivity
22 | QVQLVESGGGLVQAGGSLRLSCAASGITFFENAMGWYRQAPGKERELVASISSSGGSTYYADSVKGRFTISRDNAKNTVYLQMNSLKPEDTAVYYCAARYYSQKSYIGFRPGYEYWGQGTQVTVSS | low polyreactivity
23 | QVQLVESGGGLVQAGGSLRLSCAASGRIFRINAMGWYRQAPGKEMELVASSSRRGGNTYYADSVKGRFTISRDNAKNTVYLQMNSLKPEDTAVYYCAADTNQERTFDYWGQGTQVTVSS | low polyreactivity
24 | QVQLVESGGGLVQAGGSLRLSCAASGRTFRSYAMGWYRQAPGKERELVAAISWTGGSTYYADSVKGRFTISRDNAKNTVYLQMNSLKPEDTAVYYCAVRYRGYGYDWGQGTQVTVSS | high polyreactivity
25 | QVQLVESGGGLVQAGGSLRLSCAASGRTFRSYAMGWYRQAPGKERELVAAINTNGGSTYYADSVKGRFTISRDNAKNTVYLQMNSLKPEDTAVYYCRAWAQNQFNYWGQGTQVTVSS | high polyreactivity
26 | QVQLVESGGGLVQAGGSLRLSCAASGSIFAYNAMGWYIQAPGKERELVATITVRGGSTYYADSVKGRFTISRDNAKNTFYLQMNSLKPEDTAVYFCAVRTYRYYRYNYWGQGTQVTVSS | high polyreactivity
27 | QVQLVESGGGLVQAGGSLRLSCAASGRTFIGYAMGWYRQAPGKERELVAAISSSGGRTYYADSVKGRFTISRDNAKNTVYLQMNSLKPEDTAVYYCATGSWARDYYYWGQGTQVTVSS | high polyreactivity
28 | QVQLVESRGGLVQAGGSLRLSCAASGYIFRSNAMGWYRQAPGKERELVAAITRSGGSTYYADSVKGRFTISRDNAKITVFLQMNSLKPEDTAVYYCAVLPRGSNGMDYWGQGTQVTVSS | low polyreactivity
29 | QVQLVESGGGLVQAGGSLRLSCAASGLTFAYYAMGWYRQAPGKDRELVAAISWNGGRTYYADSVKGRFTISRDNAKNTVYLQMNSLKPEDTAVYYCAAQVTSSFYWGQGTQVTVSS | high polyreactivity
30 | QVQLVESGGGLVQAGGSLRLSCAASGRILGAYAMGWYRQAPGKERELVASISSGGRTYYADSVKGRFTISRDNAKNTVYLQMNSLKPEDTAVYYCNAKVRRRKYDYWGQGTQVTVSS | high polyreactivity
31 | QVQLVESGGGIVQAGGSLRLSCAASGRTFRGNAMGWYRQAPGKERELVAAIRYRGGSTYYADSVKGRFTISRDNAKNTVYLQMNSLKPEDTAVYDCARRYTVHTQHYDYWGQGTEVTVSS | high polyreactivity
32 | QVQLVESGGGLVQAGGILRLSCAASGFIFWDYAMGWYRQAPGTERELVADISDSGGDTYYADSVKGRFTISRDNAKNTVYLQMNSLKPEDTAVYYCAADVELWVFRGQQYDYWGQVTQVTVSS | low polyreactivity

Source: the nanobody polyreactivity screen of Harvey et al. (2022)
